Assay results published in patent US20190225703A1 (INNATE PHARMA, published 2019).

B1: antibody 12F9 (antibody, human IgG1, V domains shown)
VH: QVQLQQSGPELVKPGASVRISCKASGYTFTNYYIHWVKQRPGQGLEWIGWIYPGNVNTKYNEKFKGKATLTADKSSNTAYMQLSSLTSEDSAVYFCAREGGYDRYALDYWGQGTSVTVSS
VL: QIVLTQSPALMSASPGEKVTMTCSASSSVSYMYWYQQKPRSSPKPWIYLTSNLASGVPARFSGSGSGTSYSLTISSMEAEDAATYYCQQWSSNPLTFGAGTKLELK
B2: antibody AD2 (Biolegend Corp, product ref. 344004) (antibody, V domains shown)
VH: EVQLQQSGAELVKPGASVKLSCTASGFNIKDTYIHWVKQRPEQGLEWIGRIDPATGNTEYDPKFQGKATITADTSSNTAYLHLSSLTSEDTAVYYCARGYYGSSYPPWFAYWGQGTLVTVS
VL: DIVMTQSHKFMSTSVGDRVSITCKASQDVGSAVAWYQQKPGQSPKLLIYWASTRHTGVPDRFTGSGSGTDFTLTISNVQSEDLADYFCQQYSSYPLTFGAGTKLELK

Assays:
[1] = target: T1, cynomolgus CD73 expressed at the cell surface (cynomolgus); assay: flow cytometry titration on cynomolgus-CD73-expressing cell line
T1 construct: whole, on cells; Recombinant cell line expressing cynomolgus CD73; also called cynoCD73
Description: (§1) 10⁵ cells resuspended in PBS/0.2% BSA/0.02% NaN3 (named “staining buffer”) are distributed into round bottom 96W-microplates. Dose-range of anti-CD73 antibodies was added to the plates and cells are incubated for 45 min at 4° C. Cells were washed three times in staining buffer by spinning plates at 400 g for 3 min at 4° C. PE-coupled goat anti-mouse or goat anti-human IgG Fc fragment secondary antibodies (Beckman Coulter) diluted in staining buffer were added to the cells and plates are incubated for 30 additional minutes at 4° C. Cells were washed three times as described above and analyzed on an Accury C6 flow cytometer equipped with an HTFC plate reader.
(§2) Median of fluorescence vs. antibodies concentration was plotted on graphs and EC50 is calculated using GraphPad Prism program.

human CD73 mutant 2 = target: T2, human CD73 mutant 2 (human, UniProt P21589 27-549); assay: flow cytometry titration on HEK-293T cells transfected with CD73 mutant 2
T2 construct: Transfected in HEK-293T cells; The cell prints A1071, read as A107I
T2 chain: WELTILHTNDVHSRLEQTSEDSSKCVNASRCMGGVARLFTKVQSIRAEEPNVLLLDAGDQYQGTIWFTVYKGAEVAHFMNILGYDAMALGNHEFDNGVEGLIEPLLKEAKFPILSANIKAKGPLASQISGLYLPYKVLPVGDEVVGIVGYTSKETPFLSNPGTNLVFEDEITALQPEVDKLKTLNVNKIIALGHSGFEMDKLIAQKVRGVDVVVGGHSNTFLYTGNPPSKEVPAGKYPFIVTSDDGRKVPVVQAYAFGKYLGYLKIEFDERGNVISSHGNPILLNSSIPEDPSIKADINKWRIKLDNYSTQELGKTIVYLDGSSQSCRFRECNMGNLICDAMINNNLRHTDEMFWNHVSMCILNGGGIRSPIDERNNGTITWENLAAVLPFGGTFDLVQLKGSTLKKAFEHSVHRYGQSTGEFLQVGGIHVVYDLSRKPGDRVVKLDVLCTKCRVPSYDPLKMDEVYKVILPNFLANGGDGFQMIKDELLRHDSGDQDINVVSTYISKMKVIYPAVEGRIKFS
Description: (§3) Anti-CD73 antibodies are tested for their binding to each mutant by flow cytometry. A first experiment is performed to determine antibodies that lose their binding to one or several mutants at one concentration. To confirm a loss of binding, titration of antibodies is done on antibodies for which binding seemed to be affected by the CD73 mutations (1-0.1-0.01-0.001 μg/ml).

[2] = target: T3, human CD73 (ecto-5'-nucleotidase) expressed at the cell surface (human, UniProt P21589 27-549); assay: flow cytometry titration on HEK-293T cells transfected with wild type human CD73
T3 construct: Used for huCD73-expressing recombinant cell lines, MDA-MB-231 cells (endogenous CD73), HEK-293T cells with wild type CD73, and primary T and B cells; also called huCD73; wild type CD73
T3 sequence: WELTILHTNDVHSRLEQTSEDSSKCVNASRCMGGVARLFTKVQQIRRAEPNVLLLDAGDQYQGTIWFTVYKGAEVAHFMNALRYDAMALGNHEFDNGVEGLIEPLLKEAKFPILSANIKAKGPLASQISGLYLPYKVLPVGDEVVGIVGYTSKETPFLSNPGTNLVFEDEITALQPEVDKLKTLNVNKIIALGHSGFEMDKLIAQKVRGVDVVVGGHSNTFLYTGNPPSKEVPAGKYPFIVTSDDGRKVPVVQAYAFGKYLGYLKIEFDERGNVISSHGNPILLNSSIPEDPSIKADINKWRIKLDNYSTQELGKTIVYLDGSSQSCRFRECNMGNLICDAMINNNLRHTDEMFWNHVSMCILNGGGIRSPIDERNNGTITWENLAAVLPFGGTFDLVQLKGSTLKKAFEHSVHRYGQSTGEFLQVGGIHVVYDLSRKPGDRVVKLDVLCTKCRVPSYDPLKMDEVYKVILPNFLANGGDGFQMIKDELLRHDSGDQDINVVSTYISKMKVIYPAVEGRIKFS
Description: as §3

[3] = target: T4, mouse CD73 expressed at the cell surface (mouse, UniProt Q61503 29-551); assay: flow cytometry titration on a cell line expressing mouse CD73
T4 construct: whole, on cells; Recombinant cell line expressing mouse CD73; also called moCD73
T4 sequence (looked up): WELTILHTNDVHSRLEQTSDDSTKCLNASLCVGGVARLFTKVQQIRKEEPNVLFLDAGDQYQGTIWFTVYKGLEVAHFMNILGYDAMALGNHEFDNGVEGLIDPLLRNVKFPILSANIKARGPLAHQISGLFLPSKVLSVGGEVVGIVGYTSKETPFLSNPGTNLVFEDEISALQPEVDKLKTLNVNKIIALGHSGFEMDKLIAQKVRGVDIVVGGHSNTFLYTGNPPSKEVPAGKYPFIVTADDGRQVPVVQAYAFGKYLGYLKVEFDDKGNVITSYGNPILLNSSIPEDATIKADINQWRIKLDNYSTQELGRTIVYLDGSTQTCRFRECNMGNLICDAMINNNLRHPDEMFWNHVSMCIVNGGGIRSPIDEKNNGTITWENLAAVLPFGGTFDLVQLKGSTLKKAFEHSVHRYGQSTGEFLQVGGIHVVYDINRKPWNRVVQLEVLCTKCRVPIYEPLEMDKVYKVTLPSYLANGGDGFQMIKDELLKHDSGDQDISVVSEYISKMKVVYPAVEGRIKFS
Description: as §1, §2

[4] = target: T5, recombinant human CD73-His extracellular domain protein, soluble dimer (human, UniProt P21589 27-547); assay: SPR (Biacore T100, 25 °C), antibody captured on Protein-A, soluble dimeric CD73 injected 1.23 to 300 nM, 1:1 kinetic model, bivalent affinity
T5 construct: also called huCD73 protein; human recombinant soluble dimeric CD73
T5 sequence: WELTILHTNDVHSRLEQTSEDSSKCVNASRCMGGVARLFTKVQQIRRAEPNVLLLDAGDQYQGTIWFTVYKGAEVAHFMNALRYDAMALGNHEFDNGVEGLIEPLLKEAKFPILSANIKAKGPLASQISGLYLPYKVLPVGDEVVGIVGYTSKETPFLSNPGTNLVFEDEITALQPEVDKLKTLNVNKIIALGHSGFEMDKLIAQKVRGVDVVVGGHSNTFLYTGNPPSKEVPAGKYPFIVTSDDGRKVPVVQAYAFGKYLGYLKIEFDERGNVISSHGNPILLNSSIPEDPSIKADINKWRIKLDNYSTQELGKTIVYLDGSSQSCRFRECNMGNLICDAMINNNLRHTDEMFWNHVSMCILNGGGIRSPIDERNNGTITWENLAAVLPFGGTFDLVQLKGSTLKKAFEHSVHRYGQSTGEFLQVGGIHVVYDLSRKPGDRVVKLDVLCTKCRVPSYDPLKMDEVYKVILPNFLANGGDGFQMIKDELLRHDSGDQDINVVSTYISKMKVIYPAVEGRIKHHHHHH
Description: SPR measurements were performed on a Biacore T100 apparatus (Biacore GE Healthcare) at 25° C. In all Biacore experiments HBS-EP+(Biacore GE Healthcare) and NaOH 10 mM served as running buffer and regeneration buffer respectively. Sensorgrams were analyzed with Biacore T100 Evaluation software. Protein-A was purchase from (GE Healthcare). Human soluble dimeric CD73 proteins were cloned, produced and purified at Innate Pharma.
Protein-A proteins were immobilized covalently to carboxyl groups in the dextran layer on a Sensor Chip CMS. The chip surface was activated with EDC/NHS (N-ethyl-N′-(3-dimethylaminopropyl) carbodiimide hydrochloride and N-hydroxysuccinimide (Biacore GE Healthcare). Protein-A was diluted to 10 μg/ml in coupling buffer (10 mM acetate, pH 5.6) and injected until the appropriate immobilization level was reached (i.e. 2000 RU). Deactivation of the remaining activated groups was performed using 100 mM ethanolamine pH 8 (Biacore GE Healthcare).
Affinity study was carried out according to a standard Capture-Kinetic protocol recommended by the manufacturer (Biacore GE Healthcare kinetic wizard). Serial dilutions of human recombinant soluble dimeric CD73 proteins, ranging from 1.23 to 300 nM were sequentially injected over the captured anti-CD73 antibodies and allowed to dissociate for 10 min before regeneration. […]

[5] = target: T3, human CD73 (ecto-5'-nucleotidase) …; assay: flow cytometry titration on human-CD73-expressing cell line
Description: as §1, §2

[6] = target: T3, human CD73 (ecto-5'-nucleotidase) …; assay: flow cytometry titration on MDA-MB-231 cells, endogenous CD73
Description: as §1, §2

human CD73 mutant 3 = target: T6, human CD73 mutant 3 (human, UniProt P21589 27-549); assay: flow cytometry titration on HEK-293T cells transfected with CD73 mutant 3
T6 construct: Transfected in HEK-293T cells
T6 chain: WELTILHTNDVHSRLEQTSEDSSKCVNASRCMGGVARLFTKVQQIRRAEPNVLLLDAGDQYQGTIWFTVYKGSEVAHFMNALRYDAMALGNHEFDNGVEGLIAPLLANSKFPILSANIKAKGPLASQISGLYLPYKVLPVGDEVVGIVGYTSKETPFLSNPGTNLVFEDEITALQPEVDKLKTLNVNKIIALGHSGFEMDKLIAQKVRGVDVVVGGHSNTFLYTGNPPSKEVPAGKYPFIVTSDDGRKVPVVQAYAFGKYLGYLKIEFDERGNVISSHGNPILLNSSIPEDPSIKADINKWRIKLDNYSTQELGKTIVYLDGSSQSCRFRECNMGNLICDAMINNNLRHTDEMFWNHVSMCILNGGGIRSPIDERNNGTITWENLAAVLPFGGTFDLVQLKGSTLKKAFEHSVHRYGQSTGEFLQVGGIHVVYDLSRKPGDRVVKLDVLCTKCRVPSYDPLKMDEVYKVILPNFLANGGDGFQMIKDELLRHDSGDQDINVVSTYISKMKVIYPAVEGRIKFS

human CD73 mutant 5 = target: T7, human CD73 mutant 5 (human, UniProt P21589 27-549); assay: flow cytometry titration on HEK-293T cells transfected with CD73 mutant 5
T7 construct: Transfected in HEK-293T cells
T7 chain: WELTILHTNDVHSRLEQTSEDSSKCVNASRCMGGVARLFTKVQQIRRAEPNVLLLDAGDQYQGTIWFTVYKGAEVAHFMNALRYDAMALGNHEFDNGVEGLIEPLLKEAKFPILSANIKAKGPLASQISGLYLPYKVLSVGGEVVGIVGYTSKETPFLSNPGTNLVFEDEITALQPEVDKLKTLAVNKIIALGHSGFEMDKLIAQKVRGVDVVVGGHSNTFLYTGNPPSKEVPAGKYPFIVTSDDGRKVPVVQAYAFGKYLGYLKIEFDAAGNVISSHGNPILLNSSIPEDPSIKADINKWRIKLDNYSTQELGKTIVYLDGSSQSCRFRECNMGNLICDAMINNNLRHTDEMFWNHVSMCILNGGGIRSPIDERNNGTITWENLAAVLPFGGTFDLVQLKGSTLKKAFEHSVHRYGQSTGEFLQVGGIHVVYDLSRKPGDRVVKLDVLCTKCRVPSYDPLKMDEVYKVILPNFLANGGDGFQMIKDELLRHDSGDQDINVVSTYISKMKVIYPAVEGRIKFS

human CD73 mutant 4 = target: T8, human CD73 mutant 4 (human, UniProt P21589 27-549); assay: flow cytometry titration on HEK-293T cells transfected with CD73 mutant 4
T8 construct: Transfected in HEK-293T cells
T8 chain: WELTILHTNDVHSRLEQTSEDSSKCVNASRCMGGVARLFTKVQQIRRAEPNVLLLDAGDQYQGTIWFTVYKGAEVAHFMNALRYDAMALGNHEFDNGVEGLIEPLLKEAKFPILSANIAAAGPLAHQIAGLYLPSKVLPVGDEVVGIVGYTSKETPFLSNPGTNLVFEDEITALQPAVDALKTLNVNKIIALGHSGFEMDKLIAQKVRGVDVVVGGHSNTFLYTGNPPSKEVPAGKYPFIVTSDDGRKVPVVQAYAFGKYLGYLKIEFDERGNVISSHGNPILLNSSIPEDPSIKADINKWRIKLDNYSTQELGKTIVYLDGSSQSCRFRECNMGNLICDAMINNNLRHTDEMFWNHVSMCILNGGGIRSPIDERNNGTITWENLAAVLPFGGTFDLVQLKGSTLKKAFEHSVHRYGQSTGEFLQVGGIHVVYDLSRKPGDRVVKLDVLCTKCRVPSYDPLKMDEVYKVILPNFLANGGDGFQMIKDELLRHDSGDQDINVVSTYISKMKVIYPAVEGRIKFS
Description: as §3

Binder | EC50 [1] | EC50 (read off the curve) (human CD73 mutant 2) | EC50 (read off the curve) [2] | binding result [3] | Kd [4] | EC50 [5] | EC50 [6] | EC50 (read off the curve) (human CD73 mutant 3) | fold higher concentration (EC50) than 7H10 [5] | EC50 (read off the curve) (human CD73 mutant 5) | EC50 (read off the curve) (human CD73 mutant 4)
B1 | 0.527 µg/mL | ~0.2 µg/mL | ~0.2 µg/mL | no binding (tested: 10 µg/ml) | 0.938 nM | 0.137 µg/mL | 0.036 µg/mL |  |  |  | 
B2 |  |  | ~0.2 µg/mL |  |  | 0.743 µg/mL | 0.431 µg/mL | ~0.1 µg/mL | ~4 fold | ~0.07 µg/mL | ~0.06 µg/mL
